# Tests used:
# [1] = target: HigA2Phd (Vibrio cholerae (globular domain); Phd IDR organism not stated) (UniProt Q9KMA5); assay: ITC; details: ITC: 20 mM sodium phosphate pH 7.0, 150 mM NaCl, 1 mM EDTA, 25 or 5 C; EMSA/footprint: 20 mM Tris pH 8, 200 mM NaCl; NMR: 20 mM sodium phosphate pH 6.8, 130 mM …
# HigA2ΔIDR [2] = target: T1, HigA2ΔIDR (Vibrio cholerae, UniProt Q9KMA5, del1-36); assay: ITC; 5 C; ITC: 20 mM sodium phosphate pH 7.0, 150 mM NaCl, 1 mM EDTA, 25 or 5 C; EMSA/footprint: 20 mM Tris pH 8, 200 mM NaCl; NMR: 20 mM sodium phosphate pH 6.8, 130 mM; details: protein: recombinant; tags: C-terminal His6, uncleavable; chain copies: 2
# HigA2Shuff = HigA2Shuff (Vibrio cholerae, UniProt Q9KMA5, IDR sequence shuffled); assay: as above; details: protein: recombinant; tags: C-terminal His6, uncleavable; chain copies: 2
# HigA2 [3] = target: T2, HigA2 (Vibrio cholerae, UniProt Q9KMA5); assay: as above; details: protein: recombinant; tags: C-terminal His6, uncleavable; chain copies: 2
# HigA2Mut(26-37) = HigA2Mut(26-37) (Vibrio cholerae, UniProt Q9KMA5, T26S;L27S;K28A;H30A;H31S;V32G;N33A;D34T;V35A;G36S;E37S); assay: as above; details: protein: recombinant; tags: C-terminal His6, uncleavable; chain copies: 2
# HigA2Mut(14-25) = HigA2Mut(14-25) (Vibrio cholerae, UniProt Q9KMA5, L14S;V15S;E16A;A17T;K18A;Q19S;H20G;S21A;E22T;G23A;K24S;L25S); assay: as above; details: protein: recombinant; tags: C-terminal His6, uncleavable; chain copies: 2
# HigA2Mut(2-13) = HigA2Mut(2-13) (Vibrio cholerae, UniProt Q9KMA5, N3S;R4A;D5T;L6A;F7S;A8G;E9A;L10T;S11A;A13S); assay: as above; details: protein: recombinant; tags: C-terminal His6, uncleavable; chain copies: 2
# HigA2 [4] = target: T2, HigA2; assay: ITC; 25 C; ITC: 20 mM sodium phosphate pH 7.0, 150 mM NaCl, 1 mM EDTA, 25 or 5 C; EMSA/footprint: 20 mM Tris pH 8, 200 mM NaCl; NMR: 20 mM sodium phosphate pH 6.8, 130 mM; details: protein: recombinant; tags: C-terminal His6, uncleavable; chain copies: 2
# [5] = target: the molecule itself; assay: crystal structure; HigA2 and the 17 bp operator fragment Opr17 mixed 1:1.2, 250 uM complex; sitting drop vapor diffusion; 0.2 M sodium chloride, 0.1 M Na HEPES pH 7.5, 12% (w/v) PEG 8000
# HigA2 [6] = target: T2, HigA2; assay: X-ray crystallography; HigA2 dimer; residues 37-104 visible; ITC: 20 mM sodium phosphate pH 7.0, 150 mM NaCl, 1 mM EDTA, 25 or 5 C; EMSA/footprint: 20 mM Tris pH 8, 200 mM NaCl; NMR: 20 mM sodium phosphate pH 6.8, 130 mM; details: protein: recombinant; tags: C-terminal His6, uncleavable; chain copies: 2; blunt
# HigA2ΔIDR [7] = target: T1, HigA2ΔIDR; assay: ITC; 25 C; ITC: 20 mM sodium phosphate pH 7.0, 150 mM NaCl, 1 mM EDTA, 25 or 5 C; EMSA/footprint: 20 mM Tris pH 8, 200 mM NaCl; NMR: 20 mM sodium phosphate pH 6.8, 130 mM; details: protein: recombinant; tags: C-terminal His6, uncleavable; chain copies: 2
# HigA2IDR = target: T3, HigA2IDR (Vibrio cholerae, UniProt Q9KMA5); assay: as above; details: tags: C-terminal extra W; chain copies: 2
# T3 chain: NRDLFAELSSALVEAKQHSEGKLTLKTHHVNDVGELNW
molecule,measurement,setting,value
ATCTGTACGCTTGGTGCGTACACTT (double strand) [Opr25],Kd,[1],10000 nM
Opr25 (dsDNA) DNA 1: ATCTGTACGCTTGGTGCGTACACTT DNA 2: AAGTGTACGCACCAAGCGTACAGAT,Kd,HigA2ΔIDR [2],480 ± 160 nM
same,Kd,HigA2Shuff,37000 ± 20000 nM
same,Kd,HigA2 [3],15 ± 3 nM
same,binding result,HigA2Mut(26-37),no binding
same,Kd,HigA2Mut(14-25),5100 ± 2400 nM
same,Kd,HigA2Mut(2-13),390 ± 130 nM
same,Kd,HigA2 [4],13.8 ± 5.8 nM
"HigA2 antitoxin from Vibrio cholerae (full-length, C-terminal histidine tag) (natural protein, Antitoxin HigA2 of the higBA2 toxin-antitoxin module, Vibrio cholerae; N-terminal disordered region (residues 2-36) and globular C-terminal HTH domain (residues 37-104); only residues 37-104 are seen in the crystal; The histidine tag is un-cleavable (pET21b, NdeI/XhoI); also called wild-type HigA2; full-length HigA2; not shown: histidine tag, C-terminal, kept) MSNRDLFAELSSALVEAKQHSEGKLTLKTHHVNDVGELNISPDEIVSIREQFNMSRGVFARLLHTSSRTLENWEQGRSVPNGQAVTLLKLVQRHPETLSHIAEL",stoichiometry N,[5],2
Opr17 (dsDNA) DNA 1: GTACGCTTGGTGCGTAC DNA 2: GTACGCACCAAGCGTAC,binding result,HigA2 [6],binds
Opr45 (dsDNA) DNA 1: AATTCTTGCCATCTGTACGCTTGGTGCGTACACTTCCTATATGAA DNA 2: TTCATATAGGAAGTGTACGCACCAAGCGTACAGATGGCAAGAATT,Kd,HigA2ΔIDR [7],400 ± 50 nM
same,Kd,HigA2 [4],25.1 ± 5.2 nM
same,binding result,HigA2IDR,no binding

# From PMC11006873, “Fuzzy recognition by the prokaryotic transcription factor HigA2 from Vibrio cholerae” (Nature Communications, 2024)
